Laboratory results from US9803013B2, “Biological materials and uses thereof” (BioInvent International AB, priority 2005, dated 2017).

Key:
MM cells = experiment: FACS analysis of BI-505 epitope expression on patients' plasma cells; assay type: binding, human; parameters: key to BI-505 epitope expression Intensity: BI-505 negative cells (−) are B-cells from patient number 8; (+), (++) and (+++) corresponding to patient number 8, 7 and 10; (+), (++) and (+++) corresponding to patient number 8, 7 and 10; (+), (++) and (+++) corresponding to patient number 8, 7 and 10; conditions: for BI-505 epitope expression Intensity: FACS on MM cells
Description: (FIG. 16A) Analysis of myeloma cells in bone marrow from multiple myeloma patients by flow cytometry. Myeloma cells were gated based on expression of CD138, CD38, CD56 and CD45 according to international guidelines (Rawstron et al., 2008). Furthermore, intracellular staining was used to confirm monoclonal expression by K and A staining. B1-505 epitope expression was categorized as shown in the histogram (right position) with (+), (++) and (+++) corresponding to patient number 8, 7 and 10. BI-505 negative cells (−) are B-cells from patient number 8.
It was next evaluated the expression of the BI-505 epitope on bone marrow cells in patients with MM and related diseases (plasmacytoma, plasma cell leukemia, and light chain amyloidosis) by flow cytometry (FIG. 15 and Table 4). Myeloma cells were identified using fluorescent antibodies against surface antigens CD38, CD138, CD45 and CD56 (FIG. 16A) according to European Myeloma Network guidelines on multiparametric flow cytometry in MM (Rawstron et al., 2008) and confirming monoclonal MM cells with intracellular staining of λ and κ light chains. All MM patients expressed the BI-505 epitope on most (97±4%, mean±SD, patient n=22) myeloma cells (FIG. 15 and Table 4). The BI-505 epitope was generally very highly expressed on these cells, with median expression level 10 times higher than on normal B cells from the same patients. Similar results were obtained with a commercially available anti-ICAM-1 antibody (data not shown). Furthermore, the BI-505 epitope was highly expressed on myeloma cells in a patient in relapse who had received several different lines of therapy (FIG. 16B). Thus, ICAM-1 and the BI-505 epitope are strongly expressed on the surface of MM plasma cells.
Plasma cell surface expression of ICAM-1 and the BI-505 epitope was analyzed by FACS. Bone marrow aspirates were obtained from 29 patients diagnosed with MM or related diseases at the Department of Hematology, Skånes University Hospital, Lund. All human samples were collected using protocols approved by the Ethics Committee of Skåne University Hospital, and informed consent was obtained from all patients.
Bone marrow aspirates from 29 patients diagnosed with MM or related diseases (plasmocytoma, plasma cell leukemia, or amyloid light chain amyloidosis) at the Department of Hematology, Skånes University Hospital, Lund were analyzed by flow cytometry using 4 cocktails of antibodies, each suitable for recognizing plasma cells (Figure S3) after informed consent and with the approval of the local ethical committee. Clinical data were obtained from patients' charts.

[1] = tested on: Daudi B cell lymphoma xenografts; experiment: SCID/Daudi B cell lymphoma subcutaneous xenograft model; conditions: one day following tumor cell injection or established tumors
A549 = experiment: IgG binding to carcinoma cell line, flow cytometry MFI; parameters: species or system human; conditions: A549, Lung carcinoma
Description: (§1) The antigen distribution of human antibody targeted antigens, mainly for B11, on different carcinoma cell lines was investigated. Cells (MCF-7 and MDA MB 435S breast carcinoma, JAR and JEG-3 chorio-carcinoma, A549 lung carcinoma, TCC-SUP urinary bladder carcinoma, MDA MB 435 melanoma, HPAC, PANC-1 and BxPC-3 pancreatic carcinoma, PC-3 and DU145 prostate carcinoma, LS174 T, CaCo2, and Lovo colorectal carcinoma, and THP-1 monocytic leukaemia cells), were washed in PBS, and resuspended at 4×10^6 cells/ml in Complete Medium (200,000 cells/50 […] sample). […] Cells were incubated with either of the antibodies for 1 hour on ice, washed by resuspension in PBS/BSA 0.5%, centrifuged at 1200 rpm for 5 min, and complete aspiration of the supernatants was undertaken. Cells were incubated with PE-conjugated Goat F(ab′)2 anti-Human IgG (Caltag Laboratories, Cat no: H10104), diluted 1/50 in PBS/BSA 0.5%, for 30 min, on ice. Following resuspension of in 300 μl PBS/BSA 0.5%, cells were analysed for IgG binding using a FACScan instrument.

PANC-1 = experiment: as above; parameters: species or system human; conditions: PANC-1, Pancreatic carcinoma
Description: as §1

MDA MB 435S = experiment: as above; parameters: species or system human; conditions: Mammary carcinoma
Description: as §1

B1: B11: fully human IgG1 antibody specific for ICAM-1; VH and VL sequences of FIG. 10 (SEQ ID NOs. 6 and 8) (antibody, listed as Homo sapiens, V domains shown)
VH: EVQLLESGGGLVQPGGSLRLSCAASGFTFSNAWMSWVRQAPGKGLEWVAFIWYDGSNKYYADSVKGRFTISRDNSKNTLYLQMNSLRAEDTAVYYCARYSGWYFDYWGQGTLVTVSS
VL: QSVLTQPPSASGTPGQRVTISCTGSSSNIGAGYDVHWYQQLPGTAPKLLIYDNNNRPSGVPDRFSGSKSGTSASLAISGLRSEDEADYYCQSYDSSLSAWLFGGGTKLTVLG
B1 was tested, and the “myeloma cells expressing the BI-505 epitope” value (MM cells; all MM patients, mean±SD, patient n=22) was 97±4%, the “BI-505 epitope expression Positive cells (%)” value (MM cells; patient 1, MM) was 98% and the “BI-505 epitope expression Intensity” value (MM cells; patient 1, MM) was “+++”. For the same molecule, the “BI-505 epitope expression Positive cells (%)” value (MM cells; patient 2, MM) was 97%, the “BI-505 epitope expression Intensity” value (MM cells; patient 2, MM) was “+++” and the “BI-505 epitope expression Positive cells (%)” value (MM cells; patient 3, MM) was 100%. The “BI-505 epitope expression Positive cells (%)” value (MM cells; patient 4, nsMM) was 100%, the “BI-505 epitope expression Intensity” value (MM cells; patient 4, nsMM) was “+++” and the “BI-505 epitope expression Positive cells (%)” value (MM cells; patient 5, MM) was 100%. The “BI-505 epitope expression Intensity” value (MM cells; patient 5, MM) was “++”, the “BI-505 epitope expression Positive cells (%)” value (MM cells; patient 6, MM) was 98% and the “BI-505 epitope expression Intensity” value (MM cells; patient 6, MM) was “+++”. For the same molecule, the “BI-505 epitope expression Positive cells (%)” value (MM cells; patient 7, MM) was 98%, the “BI-505 epitope expression Intensity” value (MM cells; patient 7, MM) was “+++” and the “BI-505 epitope expression Positive cells (%)” value (MM cells; patient 8, MM) was 100%. The “BI-505 epitope expression Intensity” value (MM cells; patient 8, MM) was “+++”, the “BI-505 epitope expression Positive cells (%)” value (MM cells; patient 9, MM) was 100% and the “BI-505 epitope expression Intensity” value (MM cells; patient 9, MM) was “++”. The “BI-505 epitope expression Positive cells (%)” value (MM cells; patient 10, MM) was 95%, the “BI-505 epitope expression Intensity” value (MM cells; patient 10, MM) was “+” and the “BI-505 epitope expression Positive cells (%)” value (MM cells; patient 11, MM) was 100%. The “BI-505 epitope expression Intensity” value (MM cells; patient 11, MM) was “+++”, the “BI-505 epitope expression Positive cells (%)” value (MM cells; patient 12, nsMM) was 95% and the “BI-505 epitope expression Positive cells (%)” value (MM cells; patient 13, MM) was 100%. For the same molecule, the “BI-505 epitope expression Intensity” value (MM cells; patient 13, MM) was “+++”, the “BI-505 epitope expression Positive cells (%)” value (MM cells; patient 14, MM) was 100% and the “BI-505 epitope expression Intensity” value (MM cells; patient 14, MM) was “+++”. For the same molecule, the “BI-505 epitope expression Positive cells (%)” value (MM cells; patient 15, MM) was 100%, the “BI-505 epitope expression Intensity” value (MM cells; patient 15, MM) was “+++” and the “BI-505 epitope expression Positive cells (%)” value (MM cells; patient 16, MM) was 88%. For the same molecule, the “BI-505 epitope expression Intensity” value (MM cells; patient 16, MM) was “++”, the “BI-505 epitope expression Positive cells (%)” value (MM cells; patient 17, MM) was 100% and the “BI-505 epitope expression Intensity” value (MM cells; patient 17, MM) was “+++”. For the same molecule, the “BI-505 epitope expression Positive cells (%)” value (MM cells; patient 18, MM) was 100%, the “BI-505 epitope expression Intensity” value (MM cells; patient 18, MM) was “+++” and the “BI-505 epitope expression Positive cells (%)” value (MM cells; patient 19:1, MM) was 93%. For the same molecule, the “BI-505 epitope expression Intensity” value (MM cells; patient 19:1, MM) was “+++”, the “BI-505 epitope expression Positive cells (%)” value (MM cells; patient 19:2, MM) was 95% and the “BI-505 epitope expression Intensity” value (MM cells; patient 19:2, MM) was “+++”. For the same molecule, the “BI-505 epitope expression Positive cells (%)” value (MM cells; patient 19:3, MM) was 91%, the “BI-505 epitope expression Intensity” value (MM cells; patient 19:3, MM) was “+++” and the “BI-505 epitope expression Positive cells (%)” value (MM cells; patient 20, MM) was 100%. The “BI-505 epitope expression Intensity” value (MM cells; patient 20, MM) was “+++”, the “BI-505 epitope expression Positive cells (%)” value (MM cells; patient 21, MM) was 93% and the “BI-505 epitope expression Intensity” value (MM cells; patient 21, MM) was “+++”. The “BI-505 epitope expression Positive cells (%)” value (MM cells; patient 22, MM) was 86%, the “BI-505 epitope expression Intensity” value (MM cells; patient 22, MM) was “+++” and the “BI-505 epitope expression Positive cells (%)” value (MM cells; patient 23, AL) was 97%. The “BI-505 epitope expression Intensity” value (MM cells; patient 23, AL) was “++”, the “BI-505 epitope expression Positive cells (%)” value (MM cells; patient 24, AL) was 100% and the “BI-505 epitope expression Intensity” value (MM cells; patient 24, AL) was “+++”. The “BI-505 epitope expression Positive cells (%)” value (MM cells; patient 25, LCDD/MM) was 98%, the “BI-505 epitope expression Intensity” value (MM cells; patient 25, LCDD/MM) was “+++” and the “BI-505 epitope expression Positive cells (%)” value (MM cells; patient 26, PCL) was 76%. The “BI-505 epitope expression Intensity” value (MM cells; patient 26, PCL) was “+++”, the “BI-505 epitope expression Positive cells (%)” value (MM cells; patient 27, PCL) was 77% and the “BI-505 epitope expression Intensity” value (MM cells; patient 27, PCL) was “+”. For the same molecule, the “BI-505 epitope expression Positive cells (%)” value (MM cells; patient 28, PC) was 93%, the “BI-505 epitope expression Intensity” value (MM cells; patient 28, PC) was “+++” and the “BI-505 epitope expression Positive cells (%)” value (MM cells; patient 29, PC) was 100%. For the same molecule, the “BI-505 epitope expression Intensity” value (MM cells; patient 29, PC) was “+++”, the “increase of mean BI-505 expression in myeloma cells after first relapse” value (MM cells; patient, bone marrow number 2 versus diagnosis) was “two-fold” and the “survival” value [1] was “prolonged survival”. For the same molecule, the “tumor growth” value [1] was “significantly prevented tumor growth”, the MFI (A549) was 800 and the MFI (PANC-1) was 3800. For the same molecule, the MFI (MDA MB 435S) was 800.
